Biological target: T1, F-box protein 28 (FBXO28)
T1 chain: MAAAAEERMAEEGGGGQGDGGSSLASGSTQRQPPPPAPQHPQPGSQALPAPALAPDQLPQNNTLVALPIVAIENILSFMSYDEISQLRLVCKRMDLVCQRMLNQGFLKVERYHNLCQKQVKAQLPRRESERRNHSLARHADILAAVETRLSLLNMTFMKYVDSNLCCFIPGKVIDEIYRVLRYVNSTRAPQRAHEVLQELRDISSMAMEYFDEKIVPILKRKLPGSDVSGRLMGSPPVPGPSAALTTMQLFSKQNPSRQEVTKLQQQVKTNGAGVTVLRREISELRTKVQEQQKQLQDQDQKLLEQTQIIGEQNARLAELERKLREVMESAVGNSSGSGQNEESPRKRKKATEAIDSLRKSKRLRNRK

B1: 6-phosphofructo-2-kinase/fructose-2,6-biphosphatase 4 (PFKFB4) (protein)
chain: MASPRELTQNPLKKIWMPYSNGRPALHACQRGVCMTNCPTLIVMVGLPARGKTYISKKLTRYLNWIGVPTREFNVGQYRRDVVKTYKSFEFFLPDNEEGLKIRKQCALAALRDVRRFLSEEGGHVAVFDATNTTRERRATIFNFGEQNGYKTFFVESICVDPEVIAANIVQVKLGSPDYVNRDSDEATEDFMRRIECYENSYESLDEDLDRDLSYIKIMDVGQSYVVNRVADHIQSRIVYYLMNIHVTPRSIYLCRHGESELNLKGRIGGDPGLSPRGREFAKSLAQFISDQNIKDLKVWTSQMKRTIQTAEALGVPYEQWKVLNEIDAGVCEEMTYEEIQDNYPLEFALRDQDKYRYRYPKGESYEDLVQRLEPVIMELERQENVLVICHQAVMRCLLAYFLDKAAEQLPYLKCPLHTVLKLTPVAYGCKVESIFLNVAAVNTHRDRPQNVDISRPPEEALVTVPAHQ
For B1, the “HIF1a protein level (Western blot) after knockdown in GSCs” value was “silencing of both FBXO28 and PFKFB4 in the GSCs rescued the level of HIF1a” and the “ubiquitylation of HIF1a (ubiquitin immunoblot on immunoprecipitated HIF1a upon MG132 treatment)” value was “the ubiquitylation of HIF1a is decreased in cells overexpressing PFKFB4”.

From US20210033615
